# Data reported in patent US20050004013A1 (Scripps Research, published 2005).
# Bridges are numbered along the chain shown (N, C = ends). Where no end group is shown, it is not given here.
# Experiments:
# [1] = target: T1, mouse R-cadherin fused to Red Fluorescent Protein, on stably transfected L-cells (mouse, UniProt P39038 167-913); experiment: cell-based or functional assay
# T1 sequence (looked up): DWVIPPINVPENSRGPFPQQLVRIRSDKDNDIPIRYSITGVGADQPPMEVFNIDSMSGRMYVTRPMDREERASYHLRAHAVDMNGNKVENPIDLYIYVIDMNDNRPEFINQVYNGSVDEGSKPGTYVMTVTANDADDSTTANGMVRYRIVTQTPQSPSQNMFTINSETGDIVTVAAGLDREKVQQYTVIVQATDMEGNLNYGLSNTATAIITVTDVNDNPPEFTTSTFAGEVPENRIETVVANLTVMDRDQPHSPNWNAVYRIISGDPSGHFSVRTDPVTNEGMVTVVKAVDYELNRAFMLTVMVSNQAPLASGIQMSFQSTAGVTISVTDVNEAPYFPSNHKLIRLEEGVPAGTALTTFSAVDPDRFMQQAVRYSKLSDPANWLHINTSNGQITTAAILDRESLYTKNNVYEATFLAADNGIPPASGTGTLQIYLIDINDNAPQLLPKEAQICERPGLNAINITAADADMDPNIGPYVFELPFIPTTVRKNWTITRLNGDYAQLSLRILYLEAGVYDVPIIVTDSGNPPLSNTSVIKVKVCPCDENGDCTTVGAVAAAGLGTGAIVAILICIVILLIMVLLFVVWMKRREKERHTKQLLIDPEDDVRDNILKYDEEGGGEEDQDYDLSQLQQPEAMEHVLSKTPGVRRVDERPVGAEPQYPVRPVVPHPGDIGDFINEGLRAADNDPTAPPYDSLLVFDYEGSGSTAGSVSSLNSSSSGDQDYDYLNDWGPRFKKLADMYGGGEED
# [2] = target: T2, mouse N-cadherin fused to Red Fluorescent Protein, on stably transfected L-cells (mouse, UniProt P15116 160-906); experiment: cell-based or functional assay
# T2 sequence (looked up): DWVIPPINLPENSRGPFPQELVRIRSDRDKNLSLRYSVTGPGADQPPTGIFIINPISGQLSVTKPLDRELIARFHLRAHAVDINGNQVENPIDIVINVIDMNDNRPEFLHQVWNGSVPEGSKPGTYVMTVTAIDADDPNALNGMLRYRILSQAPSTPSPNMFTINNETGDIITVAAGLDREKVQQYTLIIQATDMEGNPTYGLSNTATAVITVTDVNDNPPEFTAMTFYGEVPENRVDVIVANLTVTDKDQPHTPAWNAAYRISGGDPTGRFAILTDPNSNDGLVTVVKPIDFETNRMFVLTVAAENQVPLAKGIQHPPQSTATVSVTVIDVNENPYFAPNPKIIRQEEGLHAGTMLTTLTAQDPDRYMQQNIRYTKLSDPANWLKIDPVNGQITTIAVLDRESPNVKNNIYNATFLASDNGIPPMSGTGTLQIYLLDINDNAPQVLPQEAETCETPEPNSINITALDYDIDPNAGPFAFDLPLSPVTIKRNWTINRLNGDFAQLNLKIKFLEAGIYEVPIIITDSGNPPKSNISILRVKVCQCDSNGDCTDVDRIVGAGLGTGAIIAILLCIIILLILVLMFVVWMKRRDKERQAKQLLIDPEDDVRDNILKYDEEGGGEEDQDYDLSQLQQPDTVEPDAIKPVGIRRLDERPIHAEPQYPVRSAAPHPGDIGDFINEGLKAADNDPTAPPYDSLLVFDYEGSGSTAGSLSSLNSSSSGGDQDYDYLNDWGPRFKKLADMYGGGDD
Binder,IC50 of inhibition of R-cadherin mediated L-cell adhesion (aggregation) [1],effectiveness relative to cyclic IDS in the aggregation assay [1],IC50 of inhibition of R-cadherin mediated L-cell aggregation [1],IC50 of inhibition of N-cadherin mediated L-cell aggregation [2]
IDSMSGR (not fully specified) [IDSMSGR (SEQ ID NO: 2)],~900 µM,~3 fold lower,–,–
"CHAVC (disulfide 1-5) [cyclic HAV peptide (CHAVC, SEQ ID NO: 20)]",–,–,150 to 200 µM,150 to 200 µM
CIDSC (disulfide 1-5; not fully specified) [cyclic CIDSC (SEQ ID NO: 8)],–,–,~300 µM,–
CINPC (disulfide 1-5; not fully specified) [cyclic CINPC (SEQ ID NO: 9)],–,–,–,< 300 µM
